Laboratory results reported in article PMC9092267.

Biological target: CK2α with para-azidophenylalanine at Tyr239 coupled with DBCO-Sulfo-Cy5 (Homo sapiens) (UniProt P68400)
Experiment: MST; 0.1526 to 5,000 nM GST cleaved CK2β titrated to 30 nM Cy5-labelled CK2α; 50 mM Tris-HCl (pH 8), 500 mM NaCl, 500 μM CaCl2, 0.05% Tween 20, 0.5% (v/v) DMSO; 25 °C; Monolith NT.115

Kd [nM]	Substance
15.8	casein kinase II subunit beta (CK2β) NP_001311.3; p.Asp32His, GST cleaved (from UniProt P67870 1-215) (natural protein)
12.9	casein kinase II subunit beta (CK2β), wild type, GST cleaved (from UniProt P67870 1-215) (natural protein)
